1 sequence from US6451528B1, “Sperm-specific AKAP protein genes and uses” (Oregon Health & Sciences University, priority 1999, dated 2002) can be followed below.

For this assay, the target named is T1, RIIα binding to AKAP110 (Mus musculus, UniProt P12367).
T1 construct: made in house; host or cells: E. coli
Put plainly: RII overlay binding assay with 32P-labeled RIIα. Conditions: peptide included in the binding assay at a concentration of 1 μM; results in FIG. 4D. The procedure:
The identity of AKAP110 in the extracts prepared as described above was determine using an RII overlay assay. This assay was based on previous experiments which had shown that PKA anchoring proteins could be specifically detected after electrophoretic separation by overlay with labeled RII subunit of mammalian PKA (see Vijayaraghavan et al., 1997, J. Biol. Chem. 272; 4747-4752). These assays were performed as follows. Polyacrylamide gel electrophoresis containing sodium dodecyl sulfate (SDS/PAGE) was performed as described in Johnson et al. (1997, Devel. Biol. 192: 340-350) and Visconti et al. (1997, Devel. Biol. 192: 351-363). Approximately […] protein per lane was loaded on a 10% gel and electrophoresed overnight at a constant current of 8mA. After electrophoresis, protein bands were transferred to Immobilon P (polyvinylidene difluoride, obtained from Millipore, Bedford, Mass.) as described in the Johnson and Visconti references. […]
The conserved regions of sequence are expected to correspond to functional domains. The portion of the sequence corresponding to the RII binding domain was determined using an RII overlay assay as follows. […] This blot was then hybridized with ^32P-labeled RIIα (results shown in FIG. 4A) or with horse radish peroxidase-conjugated S-protein that detects an S-tag expressed as a fusion protein by the pET30A vector (results shown in FIG. 4B). […]

T1 sequence (P12367 2-401 limits assumed): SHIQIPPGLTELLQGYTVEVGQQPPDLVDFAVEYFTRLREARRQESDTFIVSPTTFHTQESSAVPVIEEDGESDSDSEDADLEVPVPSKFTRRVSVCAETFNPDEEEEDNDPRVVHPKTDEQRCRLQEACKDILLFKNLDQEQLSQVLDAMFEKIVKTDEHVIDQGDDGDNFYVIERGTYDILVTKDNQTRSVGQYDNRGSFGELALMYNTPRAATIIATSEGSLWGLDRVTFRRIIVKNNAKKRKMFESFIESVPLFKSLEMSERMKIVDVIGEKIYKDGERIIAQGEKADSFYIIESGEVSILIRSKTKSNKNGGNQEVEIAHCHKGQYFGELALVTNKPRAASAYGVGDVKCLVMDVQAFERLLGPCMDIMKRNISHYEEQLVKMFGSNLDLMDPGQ

Consider SFYANRLTNLVI (listed as Mus musculus), for which the “radiolabeled RIIα binding” value is given as “prevent radiolabeled RIIα binding”.
